Results as given in paper PMC9403361.

Biological target: Rabenosyn-5 (as printed for the GST pull-down of Figure 7)
Assay: pull-down; GST-effector fusion protein on glutathione-Sepharose beads incubated with clarified lysate of transfected cells for 1 h at 4 °C; lysis buffer 20 mM Hepes pH 7.4, 100 mM NaCl, 5 mM MgCl2, 0.1% NP40, 10% glycerol, 1 mM DTT; washed 3 times with PBS-T (1% Triton X-100); immunoblot with anti-Myc or anti-Rab antibody, bands quantified with LI-COR Odyssey

- fold binding to Rabenosyn-5 relative to EEA1: 2 to 3 fold
Substance: Rab22 (from UniProt Q9UL26 1-194) (natural protein)
